Results from US20180362657A1 (University of California, published 2018).

Target: T1, receptor tyrosine kinase-like orphan receptor 1 (ROR1) expressed on EW36 cells (human, UniProt Q01973 30-937)
T1 construct: whole, on cells; Endogenous ROR1 on viable EW36 human B-cell lymphoma cells; also called RORI
Experiment: flow cytometry on EW36 cells, culture supernatant, Alexa-488 goat anti-human IgG
Experimental: Dual parameter flow cytometry was done in a FACSCalibur instrument (BD Biosciences; Immunocytometry Systems) using an anti-human 1gG that reacted with cell bound scFV of the invention (as shown in SEQ.ID.No: 3), but not the cells used in these experiments.
Propidium iodide was added to stain dead cells, which could then be excluded from the analysis. Following incubation with the culture supernatants, the cells were washed prior to analysis using a FACSCalibu™ (Becton Dickinson, Mountain View, Calif.). The data analyzed with FlowJo™ software (Tree Star, San Carlos, Calif.). A total of 20,000-gated events were collected for each sample in a list mode file, and data analysis was done using CellQuest™ software (BD Biosciences). The relative log florescence of the cells is depicted on the x-axis. Cells staining with the Alexa-488 conjugated goat antibody are shifted to the right. A histogram of control unstained cells or cells stained with the Alexa-488 conjugated goat antibody in the absence of the scFV are provided for comparison.

T1 sequence (Q01973 30-937): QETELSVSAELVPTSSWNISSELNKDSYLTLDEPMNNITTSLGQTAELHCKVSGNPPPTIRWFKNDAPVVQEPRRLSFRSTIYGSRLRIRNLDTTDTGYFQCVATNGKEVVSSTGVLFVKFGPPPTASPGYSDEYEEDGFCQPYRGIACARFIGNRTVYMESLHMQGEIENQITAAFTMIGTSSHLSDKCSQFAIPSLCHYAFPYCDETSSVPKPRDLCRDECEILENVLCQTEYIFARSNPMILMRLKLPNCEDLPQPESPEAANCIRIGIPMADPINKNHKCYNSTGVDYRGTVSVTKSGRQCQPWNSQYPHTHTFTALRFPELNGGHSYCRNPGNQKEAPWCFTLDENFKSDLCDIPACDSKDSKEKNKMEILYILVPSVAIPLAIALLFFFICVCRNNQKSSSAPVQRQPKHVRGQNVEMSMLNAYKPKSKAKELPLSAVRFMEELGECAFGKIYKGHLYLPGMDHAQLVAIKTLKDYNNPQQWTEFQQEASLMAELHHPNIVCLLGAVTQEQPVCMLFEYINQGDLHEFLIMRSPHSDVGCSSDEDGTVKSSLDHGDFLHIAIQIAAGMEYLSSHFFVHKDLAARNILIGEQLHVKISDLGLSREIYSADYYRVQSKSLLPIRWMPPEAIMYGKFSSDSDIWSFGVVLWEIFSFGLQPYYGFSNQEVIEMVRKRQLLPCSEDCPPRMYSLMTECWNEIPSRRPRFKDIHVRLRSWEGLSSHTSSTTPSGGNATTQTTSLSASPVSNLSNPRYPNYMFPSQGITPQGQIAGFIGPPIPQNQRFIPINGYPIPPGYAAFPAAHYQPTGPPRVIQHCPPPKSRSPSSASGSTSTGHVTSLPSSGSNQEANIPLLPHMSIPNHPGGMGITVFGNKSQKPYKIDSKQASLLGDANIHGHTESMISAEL

binding result: binds
B1: pCDNA 3.1 CH2 CH3 stable scFV (anti-ROR1 mAb scFv fused to CH2 CH3) (Fc fusion)
scFv: DIKMTQSPSSMYASLGERVTITCKASPDINSYLSWFQQKPGKSPKTLIYRANRLVDGVPSRFSGGGSGQDYSLTINSLEYEDMGIYYCLQYDEFPYTFGGGTKLEMKGSTSGSGKPGSGEGSTKGEVKLVESGGGLVKPGGSLKLSCAASGFTFSSYAMSWVRQIPEKRLEWVASISRGGTTYYPDSVKGRFTISRDNVRNILYLQMSSLRSEDTAMYYCGRYDYDGYYAMDYWGQGTSVTVSS
notes: Tested as culture supernatants of stably transfected cell clones; All clones carry the same construct, so they are written as one molecule; also called scFV of the invention; not shown: CH2 CH3 domains (detected with anti-human IgG)
